T1: GST-TaSPL14 (UniProt A0A3B6LP29 1-396)
T1 sequence: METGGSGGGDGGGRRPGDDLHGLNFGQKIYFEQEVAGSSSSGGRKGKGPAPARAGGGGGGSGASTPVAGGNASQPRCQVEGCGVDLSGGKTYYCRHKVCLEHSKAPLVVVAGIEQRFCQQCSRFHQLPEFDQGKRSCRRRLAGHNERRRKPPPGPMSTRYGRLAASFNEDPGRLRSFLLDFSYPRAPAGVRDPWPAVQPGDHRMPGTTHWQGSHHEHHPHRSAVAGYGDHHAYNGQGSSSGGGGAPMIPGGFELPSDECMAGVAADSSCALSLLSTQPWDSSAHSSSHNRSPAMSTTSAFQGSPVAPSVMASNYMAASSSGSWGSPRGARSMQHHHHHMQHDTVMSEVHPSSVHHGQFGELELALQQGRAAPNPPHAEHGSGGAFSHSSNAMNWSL

B1: TaERF1 promoter probe (dsDNA)
DNA 1: AGAAAAGAAAAAAGTACGATCATTCCTCGT
DNA 2: ACGAGGAATGATCGTACTTTTTTCTTTTCT
B2: TaRAP2.11 promoter probe (dsDNA)
DNA 1: ATGACTTGATGCGGTACAATAATATTAAGC
DNA 2: GCTTAATATTATTGTACCGCATCAAGTCAT
B3: TaEIL1 promoter probe (dsDNA)
DNA 1: GCCAAAACTTTTAGTACAACTTAAGTCTTT
DNA 2: AAAGACTTAAGTTGTACTAAAAGTTTTGGC

target: T1, GST-TaSPL14; assay: EMSA; 10 mM ZnCl2, poly dI-dC; competed by unlabeled probe; EMSA: 1x binding buffer (printed as 100 mM Tris, 500 mM KCl, 10 mM DTT, pH 7.5), 10% glycerol, 0.5 mM EDTA, 10 mM ZnCl2, 50 ng/uL poly dI-dC, 20 uL, 30 min at room temperature, 6% native PAGE; settings: protein: recombinant; tags: GST (N-terminal, pGEX6P-1); label: 5' biotin; blunt

Binding result, binds:
B1
B2
B3

Source: PMC7822796, “Pleiotropic function of the SQUAMOSA PROMOTER-BINDING PROTEIN-LIKE gene TaSPL14 in wheat plant architecture”
